T1: human SEZ6L ECD-His (human, UniProt Q9BYH1 29-955)
T1 construct: whole entry named
T1 sequence: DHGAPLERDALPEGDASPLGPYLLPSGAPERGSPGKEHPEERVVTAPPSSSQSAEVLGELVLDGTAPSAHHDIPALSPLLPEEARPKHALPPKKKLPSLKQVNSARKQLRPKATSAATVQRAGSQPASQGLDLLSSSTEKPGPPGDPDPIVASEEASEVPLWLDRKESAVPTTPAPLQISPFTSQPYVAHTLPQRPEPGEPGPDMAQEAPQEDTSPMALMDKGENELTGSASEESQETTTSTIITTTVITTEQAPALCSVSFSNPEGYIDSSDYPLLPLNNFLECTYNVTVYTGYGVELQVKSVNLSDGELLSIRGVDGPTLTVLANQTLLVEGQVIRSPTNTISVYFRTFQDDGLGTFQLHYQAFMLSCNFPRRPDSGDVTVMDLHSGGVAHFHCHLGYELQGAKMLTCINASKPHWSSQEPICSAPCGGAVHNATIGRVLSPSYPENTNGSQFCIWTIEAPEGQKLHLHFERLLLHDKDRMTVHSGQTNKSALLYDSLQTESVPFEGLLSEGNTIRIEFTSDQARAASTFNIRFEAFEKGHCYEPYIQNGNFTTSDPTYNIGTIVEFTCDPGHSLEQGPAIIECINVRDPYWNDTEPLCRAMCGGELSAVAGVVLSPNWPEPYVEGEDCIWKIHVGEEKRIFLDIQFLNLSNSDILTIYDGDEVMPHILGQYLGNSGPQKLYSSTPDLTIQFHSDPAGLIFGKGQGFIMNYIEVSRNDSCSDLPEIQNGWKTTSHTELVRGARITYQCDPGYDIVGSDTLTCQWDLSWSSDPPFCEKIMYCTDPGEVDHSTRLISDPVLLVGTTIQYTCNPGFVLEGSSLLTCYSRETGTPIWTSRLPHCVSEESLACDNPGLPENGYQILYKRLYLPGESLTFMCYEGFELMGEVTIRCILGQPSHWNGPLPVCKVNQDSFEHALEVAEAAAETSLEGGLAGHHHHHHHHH

T2: rSEZ6-ECD-His (rat, UniProt Q7TSK2 20-922 (mouse entry))
T2 construct: the whole entry is named; also called rat recombinant SEZ6-His; rat SEZ6 ECD
T2 chain: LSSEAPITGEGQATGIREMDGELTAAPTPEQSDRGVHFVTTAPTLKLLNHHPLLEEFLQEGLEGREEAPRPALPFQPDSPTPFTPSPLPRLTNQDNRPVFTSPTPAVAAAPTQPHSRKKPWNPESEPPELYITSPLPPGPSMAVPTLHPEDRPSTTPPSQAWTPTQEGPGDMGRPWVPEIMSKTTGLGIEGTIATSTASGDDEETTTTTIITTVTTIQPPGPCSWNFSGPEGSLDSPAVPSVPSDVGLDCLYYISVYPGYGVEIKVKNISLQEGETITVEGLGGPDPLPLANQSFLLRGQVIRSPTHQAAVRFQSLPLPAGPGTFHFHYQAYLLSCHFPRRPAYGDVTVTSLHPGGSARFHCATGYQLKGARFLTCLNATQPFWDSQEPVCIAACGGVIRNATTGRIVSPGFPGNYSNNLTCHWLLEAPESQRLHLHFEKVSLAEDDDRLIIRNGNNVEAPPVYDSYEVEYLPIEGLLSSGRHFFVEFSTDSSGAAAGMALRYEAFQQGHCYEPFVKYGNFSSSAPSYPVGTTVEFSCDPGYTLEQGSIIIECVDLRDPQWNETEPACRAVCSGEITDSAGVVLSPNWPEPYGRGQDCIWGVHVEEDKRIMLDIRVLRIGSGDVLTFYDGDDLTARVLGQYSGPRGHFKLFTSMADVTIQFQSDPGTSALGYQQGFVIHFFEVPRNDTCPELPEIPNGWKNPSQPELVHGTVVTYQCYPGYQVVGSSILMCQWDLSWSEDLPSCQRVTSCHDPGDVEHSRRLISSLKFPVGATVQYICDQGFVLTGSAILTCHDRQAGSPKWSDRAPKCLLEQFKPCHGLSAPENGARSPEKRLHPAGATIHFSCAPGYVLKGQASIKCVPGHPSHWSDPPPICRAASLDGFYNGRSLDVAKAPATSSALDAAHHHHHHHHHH


Legend:
[1] = molecular target: T1, human SEZ6L ECD-His; test: ELISA on plates coated with SEZ6L protein
Experimental: To determine cross reactivity to family member proteins, SEZ6L and SEZ6L2, an ELISA-based assay was used. Plates were coated with SEZ6, SEZ6L, or SEZ6L2 proteins at 0.2 μg/mL in PBS overnight. After washing with PBS containing 0.05% (v/v) Tween 20 (PB ST), the wells were blocked with 2% (w/v) BSA in PBS (PB SA), 100 μL/well for 1 hour at room temperature. Antibody was then added at 1 μg/mL in 100 μL PBSA for 1 hour at room temperature. After washing with PBST, 100 μL/well HRP-labeled goat anti-mouse IgG diluted 1:2,000 in PBSA for 1 hour at room temperature. […] After developing, an equal volume of 2M H₂SO₄ was added to stop substrate development and analyzed by spectrophotometer at OD 450.

[2] = molecular target: T3, mouse SEZ6 on Neuro2a cells (mouse, UniProt Q7TSK2 20-991); test: flow cytometry on Neuro2a cells expressing mouse SEZ6
T3 construct: endogenous on Neuro2a cells; also called murine SEZ6; mSEZ6
Experimental: Briefly 1×10⁵ cells per well of Neuro2a, RIN-5mF, or yeast displaying cynomolgus SEZ6 cells were incubated for 30 minutes with 50 μL PBS (2% FCS) buffer with 5 μg/mL antibody. […] After incubating for 15 minutes cells were washed twice with the PBS buffer and re-suspended in the same with DAPI for flow cytometry analysis of Neuro2a and Rin-m5F or buffer without DAPI for flow cytometric analysis of yeast cells with cSEZ6.

[3] = molecular target: T2, rSEZ6-ECD-His; test: bio-layer interferometry (ForteBio RED) or surface plasmon resonance (Biacore 2000) on rat SEZ6-His; the table does not say which; column Rat XR (Kd, nM)
Text: (§1) Various methods were used to analyze the binding and immunochemical characteristics of selected SEZ6 modulators generated as set forth above.

[4] = molecular target: T4, hSEZ6-ECD-His (human, UniProt Q53EL9 20-925); test: bio-layer interferometry (ForteBio RED) or surface plasmon resonance (Biacore 2000) on human SEZ6-His; the table does not say which; column Hu Affinity (Kd, nM)
T4 construct: the whole entry is named; also called recombinant SEZ6-His; human recombinant SEZ6-His
Text: as §1

T3 sequence (Q7TSK2 20-991): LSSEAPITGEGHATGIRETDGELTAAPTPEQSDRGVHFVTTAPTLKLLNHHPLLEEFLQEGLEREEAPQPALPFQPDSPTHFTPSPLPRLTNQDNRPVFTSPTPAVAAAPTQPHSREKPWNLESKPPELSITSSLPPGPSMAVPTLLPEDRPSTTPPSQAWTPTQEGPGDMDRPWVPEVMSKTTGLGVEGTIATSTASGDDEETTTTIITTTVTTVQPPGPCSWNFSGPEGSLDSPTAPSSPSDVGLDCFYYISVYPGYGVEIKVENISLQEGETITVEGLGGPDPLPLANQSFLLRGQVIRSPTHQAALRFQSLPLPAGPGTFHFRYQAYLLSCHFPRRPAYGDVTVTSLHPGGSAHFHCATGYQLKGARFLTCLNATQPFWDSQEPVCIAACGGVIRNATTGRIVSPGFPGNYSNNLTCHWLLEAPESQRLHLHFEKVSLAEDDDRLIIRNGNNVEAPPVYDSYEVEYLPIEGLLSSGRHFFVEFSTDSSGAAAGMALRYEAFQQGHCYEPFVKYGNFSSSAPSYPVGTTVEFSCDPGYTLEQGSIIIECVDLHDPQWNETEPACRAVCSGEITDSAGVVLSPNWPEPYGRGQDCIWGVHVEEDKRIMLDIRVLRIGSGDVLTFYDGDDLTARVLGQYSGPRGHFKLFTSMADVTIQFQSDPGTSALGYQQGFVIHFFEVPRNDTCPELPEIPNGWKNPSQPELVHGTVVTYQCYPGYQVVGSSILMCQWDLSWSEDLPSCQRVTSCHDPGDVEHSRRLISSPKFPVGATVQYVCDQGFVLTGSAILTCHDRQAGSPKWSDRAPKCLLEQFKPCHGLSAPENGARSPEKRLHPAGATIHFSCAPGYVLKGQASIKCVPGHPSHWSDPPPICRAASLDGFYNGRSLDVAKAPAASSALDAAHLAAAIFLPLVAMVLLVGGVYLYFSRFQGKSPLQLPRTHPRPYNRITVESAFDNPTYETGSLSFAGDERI

Row | binding result [1] | binding result [2] | Kd [3] [nM] | Kd [4] [nM] | Binder
1 | no binding (tested: 1 µg/mL) | no binding (tested: 5 µg/mL) | 5 | 1.8 | SC17.17 (antibody, V domains shown, murine mAb) VH: EVQLQQSGPEVMKPGASVKMSCKASGYTFTDYNMHWVKQNQGKSLEWIGEINPNIGGTGYNQKFKGKATLTVHKSSSTAYMELRSLTSEDSAVYYCARTYSYYSYEFAYWGQGTLVTVSA VL: QIVLTQSPAIMSASPGEKVTMTCSASSSVSYMHWYQQKSGTSPKRWIYDTSKLPSGVPARFSGSGSGTSYSLTISSMEAEDAATYYCQQWSSTPPTFGAGTKLELK
2 | no binding (tested: 1 µg/mL) | no binding (tested: 5 µg/mL) | 79.5 | 15.1 | SC17.34 (antibody, V domains shown, murine mAb) VH: EVQLQQSGPELVKPGSSVKISCKASGYTFTDYNMDWVKQSHGKRLEWIGYIYPDNGGAGYNQKFKGKATLTVDKSSSTAYMELRSLTSEDSAVYYCSRSITTAWFAYWGQGTLVTVSA VL: DIKMTQSPSSMYASLGERVTITCKASQDINSYLSWFQQKPGKSPKTLIYRANRLVDGVPSRFSGSGSGQDYSLTISSLEYEDMGIYYCLQYDEFPPTFGGGTKLEIK
